Laboratory results taken from patent publication US20130252983A1 (CORNELL UNIVERSITY, published 2013).

Target: mTOR (mammalian target of rapamycin) (UniProt Q9JLN9 1-2549)
Assay: co-immunoprecipitation of GAC proteins from Dbl-transformed cell lysates, Western blot with mTOR antibody
Source text: To test this, Dbl-transformed cells were transiently transfected with wild-type GAC, GACΔC and GAC (S103A), and then these proteins were isolated from cell lysates by immunoprecipitation.

binding result: no binding
B1: GAC (S103A), phospho-defective mutant of mouse glutaminase C (enzyme)
chain: HPWWGGGGRAKGPGAGGLSSSPSEILQELGKGGTPPQQQQQQQQQPGAAPPAAPGPKDSPGETDAFGNSEGKEMVAAGDNKIKQGLLPSLEDLLFYTIAEGQEKIPVHKFITALKSTGLRTSDPRLKECMDMLRLTLQTTSDGVMLDKDLFKKCVQSNIVLLTQAFRRKFVIPDFMSFTSHIDELYESAKKQSGGKVADYIPQLAKFSPDLWGVSVCTVDGQRHSIGDTKVPFCLQSCVKPLKYAIAVNDLGTEYVHRYVGKEPSGLRFNKLFLNEDDKPHNPMVNAGAIVVTSLIKQGVNNAEKFDYVMQFLNKMAGNEYVGFSNATFQSERESGDRNFAIGYYLKEKKCFPEGTDMVGILDFYFQLCSIEVTCESASVMAATLANGGFCPITGERVLSPEAVRNTLSLMHSCGMYDFSGQFAFHVGLPAKSGVAGGILLVVPNVMGMMCWSPPLDKMGNSVKGIHFCHDLVSLCNFHNYDNLRHFAKKLDPRREGGDQRHSFGPLDYESLQQELALKDTVWKKVSPESSDDTSTTVVYRMESLGERS
notes: Transiently expressed in Dbl-transformed NIH 3T3 cells and isolated by immunoprecipitation; not shown: V5 tag
